{"source": "patent US20260184748A1", "about": "(University of Pennsylvania, published 2026)", "experiment_in_all_cases": "cell-based or functional assay", "key": {"CMKLR1": {"biological_target": "T1, CMKLR1 (UniProt Q99788 1-373, limits assumed)", "T1 sequence (looked up)": "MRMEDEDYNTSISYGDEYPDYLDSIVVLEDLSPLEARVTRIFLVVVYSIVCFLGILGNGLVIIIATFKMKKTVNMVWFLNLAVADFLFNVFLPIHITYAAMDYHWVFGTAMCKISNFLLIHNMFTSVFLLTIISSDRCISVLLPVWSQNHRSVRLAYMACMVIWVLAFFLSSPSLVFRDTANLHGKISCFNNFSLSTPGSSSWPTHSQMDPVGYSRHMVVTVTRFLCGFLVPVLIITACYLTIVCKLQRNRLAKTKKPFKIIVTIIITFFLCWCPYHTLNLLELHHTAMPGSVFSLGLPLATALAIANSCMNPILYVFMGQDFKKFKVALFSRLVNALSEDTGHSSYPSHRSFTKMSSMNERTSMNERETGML"}, "ADRB2": {"biological_target": "ADRB2 (UniProt P07550 1-413)"}, "EDG5": {"biological_target": "EDG5 (UniProt O95136 1-353)", "sequence (O95136 whole entry)": "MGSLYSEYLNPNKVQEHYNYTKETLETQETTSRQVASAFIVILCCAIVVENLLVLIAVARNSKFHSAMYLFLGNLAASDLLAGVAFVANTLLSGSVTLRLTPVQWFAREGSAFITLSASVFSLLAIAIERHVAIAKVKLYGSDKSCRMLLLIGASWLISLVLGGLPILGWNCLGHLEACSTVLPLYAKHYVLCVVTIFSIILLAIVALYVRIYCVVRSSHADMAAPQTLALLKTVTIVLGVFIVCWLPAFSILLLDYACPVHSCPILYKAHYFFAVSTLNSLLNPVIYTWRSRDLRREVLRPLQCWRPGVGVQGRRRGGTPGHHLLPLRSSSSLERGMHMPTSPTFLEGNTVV"}, "FPR1": {"biological_target": "T2, FPR1 (UniProt P21462 1-350)", "T2 sequence (looked up)": "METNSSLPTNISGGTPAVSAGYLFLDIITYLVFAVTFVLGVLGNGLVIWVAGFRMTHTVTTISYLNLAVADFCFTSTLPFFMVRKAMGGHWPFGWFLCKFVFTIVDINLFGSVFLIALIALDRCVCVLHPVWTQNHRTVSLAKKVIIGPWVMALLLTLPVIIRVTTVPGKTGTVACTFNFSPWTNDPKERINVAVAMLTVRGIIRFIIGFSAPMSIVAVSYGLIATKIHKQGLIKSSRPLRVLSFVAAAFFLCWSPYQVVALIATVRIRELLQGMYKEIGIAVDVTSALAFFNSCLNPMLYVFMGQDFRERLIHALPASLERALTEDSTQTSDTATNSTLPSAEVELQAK"}}, "note": "Where no end group is shown, it is not given here."}
{"binder": "QATVGDVNTDRPGLLDLK (also: synthesised on Rink amide resin, C-terminal amide not given here outright)", "note": "[octadecaneuropeptide (ODN)]", "values": [{"measurement": "% Activity, arrestin, antagonist mode, 2.5 uM", "setting": "CMKLR1", "value": -18.3, "unit": "%"}, {"measurement": "% Activity, arrestin, antagonist mode, 2.5 uM", "setting": "ADRB2", "value": -11.7, "unit": "%"}, {"measurement": "% Activity, arrestin, antagonist mode, 2.5 uM", "setting": "EDG5", "value": -11.2, "unit": "%"}, {"measurement": "% Activity, arrestin, antagonist mode, 2.5 uM", "setting": "FPR1", "value": -11.1, "unit": "%"}]}
